# In patent US20140011196:
# Key:
# Experiment in all cases: cleavage_in_vitro
# [1] = test system: T1, HpyF30I restriction endonuclease (Helicobacter pylori RFL30)
# T1 sequence: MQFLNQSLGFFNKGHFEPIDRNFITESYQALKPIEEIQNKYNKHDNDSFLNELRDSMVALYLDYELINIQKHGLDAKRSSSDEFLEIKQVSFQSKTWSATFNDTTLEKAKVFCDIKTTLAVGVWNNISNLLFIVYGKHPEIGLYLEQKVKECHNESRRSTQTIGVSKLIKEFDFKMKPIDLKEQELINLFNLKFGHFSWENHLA
# [2] = test system: PaeR7I restriction endonuclease
# [3] = biological target: T2, TaqI restriction endonuclease (Thermus aquaticus) (UniProt P14386); conditions: 65 C
# T2 sequence: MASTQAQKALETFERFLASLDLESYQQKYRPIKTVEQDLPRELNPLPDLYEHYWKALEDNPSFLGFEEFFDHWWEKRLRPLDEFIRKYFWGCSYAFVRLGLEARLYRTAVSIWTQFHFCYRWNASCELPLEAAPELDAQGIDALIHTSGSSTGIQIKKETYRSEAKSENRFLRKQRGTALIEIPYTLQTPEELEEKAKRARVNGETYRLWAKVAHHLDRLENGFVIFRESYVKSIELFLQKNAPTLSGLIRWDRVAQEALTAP
# [4] = about 50% 5mC at the TCGA site, partial, site about 50% methylated
substance,measurement,setting,value
RASSFA1 promoter region,activity,[1]; [4],50 % undigested
same,activity,[2]; [4],50 % undigested
same,activity,"[3]; about 50% 5mC at the TCGA site, qPCR",0.8 % undigested
130 bp lambda PCR fragment m5C,activity,"[1]; 5mC in both strands, with Jurkat genomic DNA, SdaI buffer, 37 C",100 % undigested
same,activity,"[3]; 5mC in both strands, with Jurkat genomic DNA",0.7 % undigested
lambda DNA (dam-) M.SssI methylated,activity,"[1]; 5mC at CpG, both strands, SdaI buffer, 37 C, qPCR",100 % undigested
same,activity,"[3]; 5mC at CpG, both strands, TaqI buffer, qPCR",0.2 % undigested
DAPK1 promoter region,activity,"[1]; SdaI buffer, 37 C, qPCR",2 % undigested
same,activity,"[2]; buffer 4, 37 C, qPCR",0.8 % undigested
same,activity,[3]; qPCR,0.7 % undigested
lambda DNA (dam-),activity,"[1]; SdaI buffer, 15 mM Mg acetate, 37 C, qPCR",0.6 % undigested
same,activity,"[3]; TaqI buffer, qPCR",0.06 % undigested
130 bp lambda PCR fragment C,activity,"[1]; with Jurkat genomic DNA, SdaI buffer, 37 C",7 % undigested
same,activity,[3]; with Jurkat genomic DNA,0.7 % undigested
